Reference: patent US20130090457A1 (Janssen / Centocor, published 2013)
Each block holds one binder with its values, some of them ahead of it.

Key:
[1] = molecular target: full-length murine TLR3 on cells (mouse, UniProt Q99MB1 26-905); experiment: cell-based or functional assay
cynomolgus TLR3 on cells = cynomolgus TLR3 on cells (cynomolgus, UniProt A0A2K5WT39 32-912); experiment: cell-based or functional assay

IC50 in the ISRE reporter gene assay, murine TLR3-transfected HEK293T, poly(I:C) [1]: 0.5 µg/mL
B1: mAb 5429 (antibody, mouse IgG1, kappa, V domains shown)
VH: EVQLVASGGGLVKPGASLKLSCVASGFTFSDYWMAWVRQTPGKPMEYIGDIKSDGSKVNYAPSLKNRFTISRDNARTTLYLQMSNVRSEDTATYYCNRDIGPDWYFDFWGPGTMVTVSS
VL: DIQMTQSPTSLSASLGETVTIECRASEDIYNGLAWYQQKPGKSPQLLIYDSNSLHTGVPSRFSGRGSGTQYSLRINSLQSEDVASYFCQQYYDYPLTFGSGTKLEIKR

IC50 in the ISRE reporter gene assay, murine TLR3-transfected HEK293T, poly(I:C) [1]: 0.7 µg/mL
B2: mAb c1811 (antibody, mouse IgG1, kappa, V domains shown)
VH: B1 VH
VL: B1 VL

IC50 in the cyno ISRE reporter assay (cynomolgus TLR3 on cells): 1.74 µg/mL | IC50 in the cyno NF-κB reporter assay (cynomolgus TLR3 on cells): 4.18 µg/mL
B3: mAb 15EVQ (antibody, human IgG4 S228P, kappa, F234A L235A)
heavy: not shown
light: DIQMTQSPSSLSASVGDRVTITCRASQSIGLYLAWYQQKPGKAPKLLIYAASSLQSGVPSRFSGSGSGTDFTLTISSLQPEDFATYYCQQGNTLSYTFGQGTKVEIKRTVAAPSVFIFPPSDEQLKSGTASVVCLLNNFYPREAKVQWKVDNALQSGNSQESVTEQDSKDSTYSLSSTLTLSKADYEKHKVYACEVTHQGLSSPVTKSFNRGEC

IC50 in the ISRE reporter gene assay, murine TLR3-transfected HEK293T, poly(I:C) [1]: 22 µg/mL
B4: mAb 15 (antibody, human IgG4 S228P, kappa)
heavy: not shown
light: B3 light
